Source: publication PMC11161628, “Omecamtiv mecarbil and Mavacamten target the same myosin pocket despite opposite effects in heart contraction” (Nature Communications, 2024)

Biological target: the molecule itself
Assay: crystal structure; PPS-S1-Mava (crystal type B): S1 with Mg.ADP.BeFx and 5 mM Mavacamten, trypsin 1:500 (w:w), hanging drop at 4 °C, 20.5% PEG3350, 7.5% NaTacsimate pH 6.0, 5 mM TCEP; two molecules per asymmetric unit; 2.61 Å

B1: Bovine β-cardiac myosin S1 fragment, heavy chain (domain or fragment, UniProt Q9BE39 1-810, looked up)
chain: MVDAEMAAFGEAAPYLRKSEKERLEAQTRPFDLKKDVFVPDDKEEFVKATILSREGGKVTAETEHGKTVTVKEDQVLQQNPPKFDKIEDMAMLTFLHEPAVLYNLKERYASWMIYTYSGLFCVTINPYKWLPVYNAEVVAAYRGKKRSEAPPHIFSISDNAYQYMLTDRENQSILITGESGAGKTVNTKRVIQYFAVIAAIGDRSKKEQATGKGTLEDQIIQANPALEAFGNAKTVRNDNSSRFGKFIRIHFGATGKLASADIETYLLEKSRVIFQLKAERDYHIFYQILSNKKPELLDMLLITNNPYDYAFISQGETTVASIDDAEELMATDNAFDVLGFTTEEKNSMYKLTGAIMHFGNMKFKLKQREEQAEPDGTEEADKSAYLMGLNSADLLKGLCHPRVKVGNEYVTKGQNVQQVVYAKGALAKAVYERMFNWMVTRINATLETKQPRQYFIGVLDIAGFEIFDFNSFEQLCINFTNEKLQQFFNHHMFVLEQEEYKKEGIEWEFIDFGMDLQACIDLIEKPMGIMSILEEECMFPKATDMTFKAKLFDNHLGKSSNFQKPRNIKGKPEAHFSLIHYAGTVDYNIIGWLQKNKDPLNETVVDLYKKSSLKMLSSLFANYAGFDTPIEKGKGKAKKGSSFQTVSALHRENLNKLMTNLRSTHPHFVRCIIPNETKSPGVIDNPLVMHQLRCNGVLEGIRICRKGFPNRILYGDFRQRYRILNPAAIPEGQFIDSRKGAEKLLGSLDIDHNQYKFGHTKVFFKAGLLGLLEEMRDERLSRIITRIQAQSRGVLSRMEFKKLLERRDS
notes: Native protein cut by proteases, not a recombinant construct; also called bovine cardiac S1 fragment; PPS-S1-Mava; source: purified from frozen bovine heart (Pel-Freez Biologicals); limited chymotryptic digestion of the full-length myosin, Mono-Q; trypsin present in the crystallization drops
B1: binds.
